Assay results taken from the RNAGym collection of RNA variant scans (doi:10.1073/pnas.2313332121).

B1: TPR t1 (parent)
chain: GACCAAUCUGCCCUCAGAGCUCGAGAACAUCUUCGGAUGCAGAGGAGGCAGGCUUCGGUGGCGCGAUAGCGCCAACGUCCUCAACCUCCAAUGCAUCCCACCACAUGAUGAUGCCUGAAGAGCCUUGGUUUUUUG

Variants of: B1
Assay: polymerase ribozyme fitness, log enrichment relative to wild type (log ratio); higher = more active; in vitro selection for triplet polymerase activity
Summary of the method: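 Only genotypes with ≥10 input reads and ≥1 read per output were kept after Illumina sequencing of input and output libraries. These libraries were PCR-built, transcribed mutants of each subunit of a heterodimeric triplet polymerase ribozyme, each put through one triplicate in vitro selection round with frozen incubation at −7 °C, gel excision of extended constructs, streptavidin-bead capture and RT-PCR. Fitness is a logarithmic ratio of genotype enrichment to wild-type enrichment, from inverse-variance-weighted replicate averages, with the logarithm in base 2.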

Row | Variant | polymerase ribozyme fitness (log ratio)
1 | C8A A27G C56U C62U | -1.49
2 | C8G C13G G36A C72U U78A A111C | 0.397
3 | U7C U14C A29G G71C G113U | -4.94
4 | U7G A43U G48U G60C C115A U126A | -3.03
5 | U7C G93A | -1.65
6 | C8A G51C C73U C94U U130G | -3.59
7 | U7C C70U | -1.31
8 | U7A G25A G42U A50U G61A C85G A90C C123U U133G | -8.16
9 | U7G C13A A37C G52A G69C | -1.85
10 | U7C C11A G45C G58A A121C | 0.57
11 | U7A U21C G71U A90G | -0.779
12 | U7C A18U C53U G60U G61U | -4.77
13 | C8G A46U A91U G117C | -2.28
14 | C8A U38A G42U G45A | -2.61
15 | C8A G110A | -0.267
16 | C8A G110C | -3.59
17 | U7A G42A C86U | -1.98
18 | C8A A121U | 2.6
19 | C8A C12A C85U | -0.437
20 | U7G U92A | -2.22
21 | U7C C8G C62U G93U A95C | -0.906
22 | U7C C34A G44C A84U | -4.89
23 | C8A A74G | 0.152
24 | C8A A74U | -0.0501

Row | Variant | polymerase ribozyme fitness (log ratio)
25 | U7G A27U G48A U112A | -1.8
26 | C8A C15G C64U C82G C89A U109A | -6.66
27 | U7G G69A C101U | -2.81
28 | U7G U54C U55G | 0.467
29 | C8A C13U U55G G69A | -2.21
30 | C8A C97A G120C | -3.2
31 | C8G A46G G107A | -4.69
32 | U7C C13U G60A A105U | -1.71
33 | C8G C13A A18G C53A C88A U125G | -3.4
34 | C8A C53G C56A C70U C97U U112A C124U | -0.44
35 | C8G A16C C62U C94A U112G U130C | -1.66
36 | U7G A43G G47U G61A U96A | -2.6
37 | C8A G36U G69A C88A C115U U131G | -6.31
38 | U7A G47C C62U | -1.37
39 | C8A G17A U54A G71U C94A | -4.99
40 | U7G G10U C15A U54A C72G C104A | -2.9
41 | C8G C11G C56A C62G C85U | -4.61
42 | U7G A18G C62U G120C U125A | -2.15
43 | U7C G42U G69C | -2.97
44 | C8A C12G U14C C73U G77C C101A | -1.62
45 | U7A U33A A100G G120C G135A | -3.75
46 | C8G A24G C124U U126G | -2.55
47 | C8A A27C U33G G36C G42U G110C G113C | -6.47
48 | U7G G52A C104A C114G U133G | -3.61

Row | Variant | polymerase ribozyme fitness (log ratio)
49 | C8A C49A G71U C86A G122A | -0.666
50 | C8A G48C C49U C62A C94A | -3.22
51 | U7G A41C C56U | -0.335
52 | C8G C12G G44C U96A | -0.546
53 | C8A G48U C53A C62U C82U U106A A108G | -1.01
54 | U7G G63A C86G C94A G113U | -5.43
55 | U7C C31A A119G U133A | -6.12
56 | C8A C12U A90U G117C | -0.863
57 | U7C C11G A16G G52U U59G C72U | -0.58
58 | U7C C97U C114A | -1.45
59 | U7G C12G A37G | 0.709
60 | C8A G47A C80A U112A | -5.77
61 | U7G G10C G45A G47A U59G G77A | -1.37
62 | U7A U21G A75G | -1.8
63 | U7G G63U C88U G93C | -2.75
64 | U7G C12U C15A C22G C62U C80U C86U U96C G113C | -6.05
65 | C8A C12U C114U U116G | -4.98
66 | U7G C11G C124U | 1.49
67 | U7C A37U A41C G47U C53G G65A C85G A95C A111G A118U | -7.71
68 | C8A C22U G57C A75U C97U C102G | -6.66
69 | U7C A16G A29U G63U C97U U109A | -1.24
70 | C8G C11G C53U C62U U81G C102A | -4.4
71 | C8G A18U U21A C73U G93A | -3.79
72 | C8G C13U G45C A84C | 0.0875

Row | Variant | polymerase ribozyme fitness (log ratio)
73 | C8A C124G | 1.76
74 | U7C A27G U92A | -3.82
75 | C8A U21G | -1.24
76 | C8A G19U G44U C97U | -3.97
77 | C8G C13G A16U C49A C70U U129C | -1.75
78 | C8G A90G G113U G117A G127A | -6.12
79 | U7A G17U G52C C64U C123G | -1.52
80 | U7G A46C C97U G120U G127U | 0.436
81 | C8A C12G G39C G63C U78G G117U | -2.3
82 | U7G G48C C89A | -2.97
83 | U7G C22U G42A G47C G60C U87G U92C | -7.02
84 | C8A C72G U133G | 0.138
85 | U7C G45U G110C | -5.16
86 | U7G G10A G39U G69C C101G G110C | -7.07
87 | U7C C20A G39C G61A | -3.85
88 | U7G G71U C115A | 1.44
89 | C8A G117C | -2.07
90 | U7A U9C C12U G57C | 0.0479
91 | C8G C11U U21C C34U | -3.99
92 | C8A C28A G63U G77C C86A U112C | -6.46
93 | C8A G63U G77C G117C | -4.17
94 | U7G A43U G47C G58U U59G C82U G110A | -5.4
95 | U7G G42A G63C U81A U109A U130C | -6.25
96 | C8A A74C G93C U116A | -2.46

Row | Variant | polymerase ribozyme fitness (log ratio)
97 | C8G C11U G120A | 2.17
98 | C8A G25U A26C C40U G63U C88G U112C C123A C124A U130A | -7.64
99 | U7G C40U A41C G71U G113A | -2.26
100 | U7G C8A | 0.287
101 | C8A A50U C89A A90G | -2.46
102 | C8A G17A C72U U126A | -3.12
103 | U7C C31U | -4.85
104 | U7G G39A C62G C114G | -6.04
105 | C8A U112C A121G | 2.38
106 | C8A C31A | -5.54
107 | C8A G71A | 0.22
108 | C8A G19A A50G U54A A103C G120C | -5.02
109 | C8A A50C C62A C82A C85A C88U C89G A121U | -3.62
110 | C8A A91G C98U | -1.37
111 | C8A U112A C123A | 1.22
112 | C8A G39A C79U | 0.0227
113 | U7G U96A A121C | 0.553
114 | U7G G17U A27C C53U C56A | -4.57
115 | C8G A37G G71A | 0.737
116 | C8G C11G U96A | -0.26
117 | C8G A50C C73U G93A | -0.0523
118 | U7A G61C A91C C114A C115G | -7.29
119 | C8G C12G U55G G61U | 0.571
120 | U7G C13U A84U U96A A121C | 0.875

Row | Variant | polymerase ribozyme fitness (log ratio)
121 | U7G C114U G127A | -1.17
122 | C8A A26U C115U | -5.1
123 | C8G A74C | 0.88
124 | U7G G110U | -0.723
125 | U7G G10U C79G | -1.66
126 | U7G A41G C53A G61U C79U A90U A111C | -3.04
127 | C8A U9G U87A | 0.00649
128 | C8A G69C G110C | -4.93
129 | C8A G47U U78A A83C C98G U112A | -7.02
130 | C8A U9G A16G A24G G39C G60A C64A U92C G110U G113U A121U C123G U126G | -6.69
131 | C8A A18C C56G A95G | -2.26
132 | U7G G58C U106A G128A | -0.568
133 | U7C C85G U87C | -1.57
134 | C8G C11U C124A | 2.24
135 | U7G C89A U116A G117A | -2.89
136 | U7A G60U U112A | 1.29
137 | U7C C62U C99G U112G U132C U134A G135U | -6.65
138 | U7G C13U A26G G48A C49U G52A A75C | -3.14
139 | U7G C101A | -0.172
140 | U7C C13G C72A | -0.177
141 | U7G G69U G122A | 0.793
142 | C8G C12G A46U | -0.837
143 | U7A U92A G120A U133A | -0.782
144 | C8A C53U U55A G77A C89A U129C | -3.11

Row | Variant | polymerase ribozyme fitness (log ratio)
145 | U7C U9G A26G C72A | -1.08
146 | U7G C31U C62U A100C U106A G113A | -4.43
147 | U7A G48C C85U G120C | -0.382
148 | C8A G63A A83C C86U | -0.491
149 | C8A G120A | 1.88
150 | U7C C34U G61U C88A U116A | -5.7
151 | U7G G39A C114G | -2.02
152 | C8G C12U G63A G122A C123U | 0.85
153 | C8A G63A | -0.863
154 | C8A C40G A84U | -0.858
155 | C8A G10U C73A | -0.361
156 | C8A C101G | -1.63
157 | U7A U106A | 0.182
158 | U7G G117C G122U | -4.49
159 | C8G A18U C73G U126G | -5.64
160 | U7G C15A G58C | -0.977
161 | U7C U87C U92G G122A C123U | -1.22
162 | U7A U38G C49A | -0.102
163 | U7G C11U C49A C56A G107U C114U | -4.37
164 | C8A C28U G52U G117C C124A G128A U133A | -6.69
165 | U7G C8U C53A U59C C80U | -4.87
166 | U7C C62A G110A A119C | -4.23
167 | U7A U9C C15A A41U C56U U92G | -1.45
